Values of other authors, collected in patent US8443799B2, “Dry powder inhalation system for transpulmonary administration” (Otsuka Pharmaceutical Co., Ltd., priority 2001, dated 2013).

Details: disclosure in WO 95/31479

interferon
deactivation during the spray drying process: about 25%
